The record followed here is US20230287108A1 (published 2023).

For orientation: Kd means the constant that tells how readily two partners part at equilibrium.

This experiment deals with T1, recombinant cynomolgus monkey (Macaca fascicularis) transferrin receptor 1 (cTfR1) (cynomolgus monkey (Macaca fascicularis), UniProt Q5RDH6 87-760 (Pongo abelii entry), limits assumed).
T1 construct: Recombinant protein; also called cyTfR1; cyno TfR1
T1 chain: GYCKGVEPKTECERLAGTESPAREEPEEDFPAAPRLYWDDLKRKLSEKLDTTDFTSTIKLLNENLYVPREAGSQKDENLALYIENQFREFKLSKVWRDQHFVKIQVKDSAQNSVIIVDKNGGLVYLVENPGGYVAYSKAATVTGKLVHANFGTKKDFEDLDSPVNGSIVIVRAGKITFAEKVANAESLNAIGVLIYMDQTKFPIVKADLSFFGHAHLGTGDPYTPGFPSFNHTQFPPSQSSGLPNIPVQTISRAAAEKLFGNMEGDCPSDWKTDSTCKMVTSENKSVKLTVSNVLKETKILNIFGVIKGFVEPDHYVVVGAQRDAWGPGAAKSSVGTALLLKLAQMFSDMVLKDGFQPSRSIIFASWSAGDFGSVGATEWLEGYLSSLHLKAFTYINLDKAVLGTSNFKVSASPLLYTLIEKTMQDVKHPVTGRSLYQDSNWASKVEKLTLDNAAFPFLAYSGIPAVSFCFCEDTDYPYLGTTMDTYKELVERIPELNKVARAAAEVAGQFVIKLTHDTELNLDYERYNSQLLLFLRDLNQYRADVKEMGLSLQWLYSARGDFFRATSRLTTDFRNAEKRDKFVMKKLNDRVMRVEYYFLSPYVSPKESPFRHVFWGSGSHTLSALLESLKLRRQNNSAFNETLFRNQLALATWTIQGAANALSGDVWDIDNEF
Briefly: Avg KD, antibody alone; table gives no method.

B1: 15G11 (control anti-TfR1 antibody) (antibody, V domains shown)
VH: QVQLQQPGAELVKPGASVKLSCKASGYTFTSYWMHWVKQRPGQGLEWIGEINPTNGRTNYIEKFKSKATLTVDKSSSTAYMQLSSLTSEDSAVYYCARGTRAYHYWGQGTSVTVSS
VL: DIQMTQSPASLSVSVGETVTITCRASDNLYSNLAWYQQKQGKSPQLLVYDATNLADGVPSRFSGSGSGTQYSLKINSLQSEDFGTYYCQHFWGTPLTFGAGTKLELK
Turning to B1, the Kd was determined as 1 nM.
